In the nanobody polyreactivity screen of Harvey et al. (2022):

Experiment: yeast display, Sf9 membrane polyspecificity reagent, FACS + sequencing; frameworks hold sequencing errors
Procedure, shortened: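 Nanobodies from a synthetic yeast display library (Saccharomyces cerevisiae BJ5465), induced 36–48 hours with galactose, were stained 1 hour at 4 °C with 10% biotinylated, detergent-solubilized Sf9 membrane reagent, enriched on streptavidin microbeads, then FACS-sorted. Anti-HA (expression) and streptavidin (reagent binding) fluorescence set low and high (top ~1%) gates. Polyreactivity labels come from the gate of origin. Genes were colony-PCR amplified, MiSeq 2 × 250 sequenced and filtered by CDR length.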

Sequence	polyreactivity (PSR sort gate)
QVQLVESGGGLVQAGGSLRLSCAASGRIFGRNTMGWYRQAPGKERELVASITFGGVSTYYADSVKGRFTISRDNAKNTVYLQMNSLKPEDTAVYYCAAVLINYEGYDSWGQGTQVTVSS	low polyreactivity
QVQLVESGGGLVQAGGSLRLSCAASGRIIGFNAMGWYRQAPGKEMELVASIRTTGGSTRYADSVKGRFTISRDNAKNTVYLQMNSLKREDTAVYYCAARWGKTLWQYNYWGQGTQVTVSS	high polyreactivity
QVQLVESGGGLVHAGGSLRLSCAAYGSTSLVNAMGWYRQAPGKERELVAAITRGGNTYYADSVKGRFTISRDNAKNTVYLQMNSLKPEDTAVYYCAAEDHTEQGQYDYWGQGTQVTVSS	low polyreactivity
QVQLEESGGGLVQAGGSLRLSWAASGRTIAAYAMGWYRQAPGKERELVAAISIGGSTNYADSVKGRFTISRDNAKNTVYLQMNSLKPEDTAVYYCAAPRRRYLRARIRYEYWGQGTQVTVSS	high polyreactivity
QVQLQESGGGLVQAGGSLRLGCAASGNISDAGYMGWYRQAPGKEREFVAAIAAGSNTNYADSVKGRFTISRDNAKNTVYLQMNSLKPEDTAVFYCAVGSYARVQYEYWGQGTQVTVNS	low polyreactivity
QVQLVESGGGLVQAGGSLRLSCAASGSTFSFNAKGWYRQAPGKARELVAAITGGDGTNYADSVKGRFTISRDNAKNTVYLQMNSLKPEDTAVNYCAADQWGSTEDYWFTYGYWGQGTQVTVSS	low polyreactivity
QVQLVESGGGLVQAGGSLRLSCAATGSIIVYNTMGWYRQAPGKERELVAAITVRDDSTYYADSVKGRFTISRDNAKNTVYLQMNSLKPEDTAVYYCNARGNFLIGRDYWGQGTQVTVSS	low polyreactivity
QVQLVESGGGLVQAGGSLRLSCAASGFNFYLNAMGWYRQAPGKERELVAAISSSGGITYYADSVKGRFTISRDNAKNTVYLQMNSLKPEDTADYSCAAYWPKYRYEAERDYWGQGTQVTVSS	low polyreactivity
QVQLVESGGSLVQAGGSLRLSCAASGSIFFYYAMGWYRQAPGKERELVAAISWSGGSTYYADSVKGRFTISRDNAKNTVYLQMNSLKPEDTAVYYCAADRPYAGRYWKGYHSALYDYWGQGTQVTVSS	low polyreactivity
QVQLVESGGGLVQAGGSLRLSCAASGFIFGPYAMGWYRQAPGKERELVASISWSGGRTYYADSVKGRFTISRDNAKNTVYLQMNSLKPEDTAVYYCAADLPVIRGYRSNRFGYWGQGTQVTVSS	high polyreactivity
QVQLVESGGGLVQAGGILRLSCAASGSTFSYYAMGWYRQAPGKERELVARISKDTGSTYYADSVKGRFTISRDNAKNTVYLQMNSLKPEDTAVYYCAAELDYFPGYDYWGQGTQVTVSS	low polyreactivity
QVQLVESGGGLVQAGGSLRLSCAASGSTFVPNDMGWYRQAPGKERELVAGISSVGGTDADSVKGRFTISRDNAKNTVYLQMNSLKPEDTAVYYCNALHAYYVLTPYDYWGQGTQVTVSS	low polyreactivity
QVQLVESGGGLVQAGGSLRLSSAASGSIFGSNAMGWYRQAPGKERELVATITTSGGITYYADSVKGRFTISRDTAKNTVYLQMNSLKPEDTAVYYCAAAEGGGLVTYDYWGQGTQVTVSS	low polyreactivity
QVQLVESGGGLVQAGGSLRLSCAASGSTFYIYAMGWYRQAPGKERELVARISGSRGSTYYADSVKGRFTISRDNAKNTVYLQMNSLKPEDTAVYYCAADDIYKYYQYYALPSYRYDYWGQGTQVTVSS	low polyreactivity
QVQLVESGGGLVQAGGSLRLSCAASGGIFDGNAMGWYRQAPGKERELVAAISSGGITKYADSVKGRFTISRDNAKNTVYLQKNSLKPEDTAVYYCAASWYRYRFIRYDYWGQGTQVTVSS	high polyreactivity
QVQLVESGGGLVQAGGSLRLSCAASGFTFGGYAMGWYRQAPGKERELVAAIRSTGDTTYYADSVKGRFTISRDNAKNTVYVQMNSLKPEDTAVYYCNADLSRDNDFDYWGQGTQVTVSS	low polyreactivity
QVQLVESGGGLVQAGGSLRLSCAASGRTFYRYAMGWYRQAPGKERELVAAISSNGGSTYYADSVKGRFTISRDNAKNTVYLQMNSLKPEDTAVYYCYYYYSRLFDYWGQGTQVTVSS	high polyreactivity
QVQLVESGGGLVQAGGSLRLSCAASGLTFGPYAMGWYRQAPGKERELVAAITSGGNTNYADSVKGRYTISRDNAKNTVYLQMNSLKPEETAVYYCATSYYLAYRSITPYDYWGQGTQVTVSS	low polyreactivity
QVQLVESGGGLVQAGGSLRLSCAASGSIFGVYAMGWYRQAPGKESELVATITWRGGSTYYADSVKGRFTISRDNAKNTVYLQMNSLKPEDTSVYYCNARYKWGYYSRYDYWGQGTQVTVSS	high polyreactivity
QVQLVESGGGLVQAGGSLRLSCAASGSTFFLNAMGWYRQAPGKESEFVAAISYTSTSTYYADSVKGRFTISRDNAKNTVYLQMNSLKPEDTAVYYCAVDAAGWYYTVETGDYAEDYWGQGTQVTVSS	low polyreactivity
QVQLVESGGGLVQAGGSLRLSCAASGSTFSDYAMGWYRQAPGKERELVAAISSSGGRTYYADSVKGRFTISRDNAKNTVYLQMNSLKPEDTAVYYCNAYYIYILYGGQTYTGDYWGQGTQVTVSS	high polyreactivity
QVQLVESGGGLVQAGGSLRLSCAASGRISPNNAMGWYRQAPGKERELVAAITASGGTTYYADSVKGRFTISRDNAKNTVYLQMNSLKPEDTAVYYCAAAVWYRGWYRYDYWGQGTQVTVSS	low polyreactivity

Sequence	polyreactivity (PSR sort gate)
QVQLVESGGGLVQAGGSLRLSCAASGIIFAGYAMGWYRQAPGKERELVADITSSGTSTYYADSVKGRFTISRDNAKNTVYLQMNSLKPEDTAVYYCAADDPRKNFTILDYLYDYWGQGTQVTVSS	low polyreactivity
QVQLVESGGGLVQAGGSLRLSCAASGSTFSTNAMGWYRQAPGKERELVAAISWSDDDTYYADSVKGRFTISRDNAKNTVYLQMNSLKPEDTGVYYCAAEGVGPARVYQGGEYNYWGQGTQVTVSS	low polyreactivity
QVQLVESGGGLVQAGGSLRLSCAASGRIFYSNAMGWYRQAPGKERELVAAISWSTGSTYYADSVKGRFTISRDHAKNTVYLQMNSLKPEDTAVYYCYKDDAQTRSFASTWYDYWGQGTQVTVSS	high polyreactivity
QVQLQESGGGLVQAGGSLRQSYAASGYIFPSLAMGWYRQAPGKEREFVAAIGRGSTNNYADSVQGRFTISRDNAKNTAYQQMNSLKPEDTAVYYCAAAASPLTRHLYWGQGTQVTVSS	low polyreactivity
QVQLVESGGGLVQAGCSLRLSCAASGFTFFKYAMGWYRQAPGTERELVAAITRNGGRTYYADSVKGRFTISRDNAKNTVYLQMNSLKPEDTAVYYCAARYANLRNGYRYDYWGQGTQVTVSS	high polyreactivity
QVQLVESGGGLVQAGGSLRLSCAASGIIFRVYTMGWYRQAPGKERELVAGISSGDSTSYADSVKGRFTISRDNAKNTVYLQMNSLKPEDTEVYYCNADGKAGGDYDYWGQGTQVTVSS	low polyreactivity
QVQLVESGGGLVQAGGRLRLSCAASGFIFPLYAMGWYRQAPGKERELVAAIRASSGSTYYADSVKGRFTISRDNAKNSVYLQMNSLKPEDTAVYYCNARQYVWYPYEYWGQGTQVTVSS	high polyreactivity
QVQLVESGGGLVQAGGSLRLICAASGFTFLTNAMGWYRQAPGKERELVAAISSGGNTNYADSVKGRFTISRDNAKNTVYLQMNSLKPEDTAVYYCAADNDYLSSQVSYYYWGHGTQVTVSS	low polyreactivity
QVQLVESGGGLFQAGGSLRLSCAPSGSNFSIYAMGWYRQAPGKERELVAAITWGGGSTYYADSVKGRFTISRDNAKNTVYLQMNSLKPEETAVYDCAADSLTWYGTYYYWGQGTQVTVSS	high polyreactivity
QVQLVESGGGLVQAGGSLRLSCAASGRIFKYYAMGWYRQAPGKERELFAAISRGGSTYYADSVKGRFTISRDNAKNTVYLQMNSLKPEDTAVYYCNAYRHGYVAYRRYDYWGQGTQVTVSS	high polyreactivity
QVQLVESGGGLVQAGGSLRLSCAASGRIFGKYAMGWYRQAPGKERELVAAISSSGRTNYADSVKGRFTISRDNAKNTVYLQMNSLKPEDTAVYYCAVRVLIHTNTRRLDYWGQGTQVTVSS	high polyreactivity
QVQLVESGGGLVQAGGSLRLSCAASGRIFLWYAMGWYRQAPGKERELVASITRSGVTTYYADSVKGRFTISRDNAKNTVYLQMNSLKPEDTAVYYCAAELYGWSGDTNDYWGQGTHVTVSS	low polyreactivity
QVQLVESGGGLVQAGGSLRLSCAASGSTFDVNAMGWYRQAPGKERELVAAISWNSGSTYYADSVKGRFTISRDNAKNTVYLQMNSLKPEDTAVYYCAATYGTGRRSKYGYWGQGTQVTVSS	high polyreactivity
QVQLVESGGGLVHAGGSLRLSCAASGFTFGGYAMGWYRQAPGIEREFVAAISSSGGRTYYADSVKRRFTISRDNAKNTVYLPMNSLKPEDTAVYDCNVGQYLRARRPVDSWGQGTQVSVSS	high polyreactivity
QVQHVESGGGLVQAGGSQRLSCAASGSIFDYYAMGWYRQAPGKERELVAAISTSTSSTYYADSVKGRFTISRDNAKNTVYLQLNSLKPEDTAVYYCAAVGESQPEYPGYDYWGQGTQVTVSS	low polyreactivity
QVQLVESGGGLVQAGGSLRLSCAASGFMFSRYAMGWYRQAAGTERELVAAITSSGGRTYYADSVKGRFTISRDNAKNTVYLQMTSLKPEDTAVYYCNADLGSWYTWFDYWGQGTQVTVSS	high polyreactivity
QVQLVESGGGLVQAGGSLRLSCAASGSLFEINAMGWYRPAPGKERELVAAITGSGGSTHYADSVKGRFTISRDNAKNTVYLQMNSLKPEDTAVYYCSAVPRYQYGYWGQGTQVTVSS	low polyreactivity
QVQLVESGGGIVQAGGSLRLSCAASGSIFTHYAMGWDRQAPGKERELVATISSTGSTDYADSVKGRFTISRDNAKNTVFLQINSLKPEDTAVYYCAAVSFYKTRATYYFWYDYWGQGTQVTVSS	low polyreactivity
QVQLVESGGGLVQAGVSLRLSCAASGGTFLVSAKGWYRQAPGKERQMVAAISVSGGSTYYADSVKGRFTISRDNAKNTVYLQMNSLKPEDTAVYYCAATYSHPFHTYVLRFFAYYYWGQGTQVTVSS	high polyreactivity
QVQLVESGGGLVQAGGSLRLSCAASGFIFSGNAMGWYRQAPGKEREFVAAISTSAGTTNYADSVKGRFTISRDNAKNTVYLQMNSLKPEDTAVYYCAARSTRRRIYGYWGQGTQVTVSS	high polyreactivity
QVQLVESGGGLVQAGGSLRLSCAASGSTLYIYAMGWYRQAPGKERELVAAITSSTGSTYADSVKGRFTISRDNAKNTVYLQMNSLKPEDTAVFVCNAGGPLQPYDYWGQGTQVTVSS	low polyreactivity
